From patent US20200368125A1, “FAST-ACTING BIOCIDAL CLEANSING COMPOSITION” (Conopco, Inc., d/b/a UNILEVER, priority 2017, published 2020)

Test: Zeta potential measured using Malvern Zetasizer
Format: physicochemical
Conditions: 2 ml sample; alkaline (KOH) aqueous medium
Experimental: The Zeta Potential was measured using Malvern Zetasizer (2 ml sample). […] The error bar of ±0.2 mV […]. […] Usually Proteins tend to destabilise/degrade in the presence of strong alkalis like KOH but the stability of the complex, so prepared, was confirmed by ^1H NMR. […] Surface charge around protein changes with change with complex.

sericin
Zeta Potential: −15±0.2 mV
